Laboratory results published in paper PMC9437721, “Identification and characterization of two Isatis indigotica O-methyltransferases methylating C-glycosylflavonoids” (Horticulture Research, 2022).

Legend:
[1] = substrate: O=c1cc(-c2ccc(O)c(O)c2)oc2cc(O)cc(O)c12; assay: O-methyltransferase assay, UPLC, Michaelis-Menten fit; type: biochemical, Isatis tinctoria; conditions: 480 μM SAM, Tris-HCl pH 8.0, 45 °C
Description: (§1) O-methyltransferase assay, UPLC, Michaelis-Menten fit on IiOMT1

[2] = substrate: O=c1cc(-c2ccc(O)c(O)c2)oc2cc(O)c([C@@H]3O[C@H](CO)[C@@H](O)[C@H](O)[C@H]3O)c(O)c12; assay: as above; type: biochemical, Isatis tinctoria; conditions: 480 μM SAM, Tris-HCl pH 8.0, 45 °C
Description: as §1

B1: IiOMT1 (Isatis tinctoria) (protein)
chain: MATTTTEATKTSTNGEDKQSQNLRHQEVGHKSLLQSDDLYQYILETSVYPREPESMKELREVTAKHPWNIMTTSADEGQFLNMLIKLINAKNTMEIGVYTGYSLLATALALPEDGKILAMDVNRENYELGLPIIEKAGVAHKIDFREGPALPVLDQLVADEKNHGTYDFIFVDADKDNYINYHKRLIDLVKVGGVIGYDNTLWNGSVVAAPDAPMRKYVRYYRDFVLELNKALAADPRIEICMLPVGDGITICRRIN
notes: N-terminal His6-SUMO tag kept (pE-SUMO), E. coli Rosetta (DE3), Ni-NTA
- Km [1]: 113.5 ± 10.41 µM
- kcat [1]: 0.413 s⁻¹
- kcat/Km [1]: 3650 M⁻¹ s⁻¹
- Km [2]: 75.56 ± 8.21 µM
- kcat [2]: 0.304 s⁻¹
- kcat/Km [2]: 4040 M⁻¹ s⁻¹
